# Publication PMC8730730
# Columns and labels:
# SEC-MALS = details: glycan lost; control: native rshACE2
# [1] = Mca-Ala-Pro-Lys(Dnp) hydrolysis, spectrofluorimetry; details: glycan lost; control: native rshACE2
substance,measurement,setting,value
"rshACE2 (recombinant soluble human ACE2, APN01): PNGase F (deglyco-rshACE2)",oligomerisation,SEC-MALS,no change
same,"enzymatic_activity, percent_of_wt",[1],increases
